Laboratory results as given in patent US20140227283A1 (INSERM INSTITUT NATIONAL DE LA SANTE ET DE LA RECHERCHE …, published 2014).

Key:
[1] = target: human Axl extracellular domain fused to human Fc domain (hAxl-hFc protein; R&D system) (human) (UniProt P30530); assay: SPR (BIAcore), hAxl-hFc on a CM5 chip; 3E3-E8 (666 nM) injected second, after Gas6 (625 nM), without removing Gas6
[2] = target: human Axl extracellular domain fused to human Fc domain (hAxl-hFc protein; R&D system) (human) (UniProt P30530); assay: SPR (BIAcore-3000), hAxl-hFc amine-coupled on a CM5 chip, mAb injected at 2 to 133 nM, 25° C., one-to-one Langmuir model
[3] = target: T1, human Axl on the surface of cells (human, UniProt P30530 26-894); assay: flow cytometry on A549 cells
T1 construct: whole, on cells; Endogenous Axl of the cell lines; also called cell surface Axl; Axl receptor
T1 sequence (looked up): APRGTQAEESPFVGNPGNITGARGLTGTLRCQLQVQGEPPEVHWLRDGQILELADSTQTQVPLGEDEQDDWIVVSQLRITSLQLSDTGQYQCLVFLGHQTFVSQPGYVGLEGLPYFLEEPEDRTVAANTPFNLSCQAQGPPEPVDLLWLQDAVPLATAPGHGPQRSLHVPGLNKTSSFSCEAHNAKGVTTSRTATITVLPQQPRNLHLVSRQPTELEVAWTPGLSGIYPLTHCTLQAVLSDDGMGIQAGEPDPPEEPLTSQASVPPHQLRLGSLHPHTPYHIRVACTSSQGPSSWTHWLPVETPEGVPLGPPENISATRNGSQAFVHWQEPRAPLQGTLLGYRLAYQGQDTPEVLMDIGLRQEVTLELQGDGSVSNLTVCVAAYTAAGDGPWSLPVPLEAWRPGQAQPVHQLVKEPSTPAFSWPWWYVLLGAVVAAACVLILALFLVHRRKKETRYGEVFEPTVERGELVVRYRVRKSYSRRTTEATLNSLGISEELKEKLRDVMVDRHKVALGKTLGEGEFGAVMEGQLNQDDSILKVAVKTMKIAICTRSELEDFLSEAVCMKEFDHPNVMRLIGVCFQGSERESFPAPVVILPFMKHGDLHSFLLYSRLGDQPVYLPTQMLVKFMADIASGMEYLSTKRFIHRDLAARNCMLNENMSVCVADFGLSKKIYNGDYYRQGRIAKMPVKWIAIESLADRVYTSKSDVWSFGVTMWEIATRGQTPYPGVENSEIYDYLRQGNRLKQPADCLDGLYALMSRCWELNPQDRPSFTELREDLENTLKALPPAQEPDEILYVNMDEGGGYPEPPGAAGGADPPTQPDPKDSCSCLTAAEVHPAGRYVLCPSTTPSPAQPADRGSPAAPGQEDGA
From the text: FIG. 2: Flow cytometry analysis of cell surface Axl in A549.

[4] = target: human Axl extracellular domain fused to human Fc domain (hAxl-hFc protein; R&D system) (human) (UniProt P30530); assay: SPR (BIAcore), hAxl-hFc on a CM5 chip; 3E3-E8 (666 nM) injected first, before Gas6
human Mer-Fc = target: T2, human Mer-Fc (human, UniProt Q12866 26-499, limits assumed); assay: ELISA on coated Fc fusion proteins
T2 construct: also called h-Mer; not shown: Fc part
T2 sequence (looked up): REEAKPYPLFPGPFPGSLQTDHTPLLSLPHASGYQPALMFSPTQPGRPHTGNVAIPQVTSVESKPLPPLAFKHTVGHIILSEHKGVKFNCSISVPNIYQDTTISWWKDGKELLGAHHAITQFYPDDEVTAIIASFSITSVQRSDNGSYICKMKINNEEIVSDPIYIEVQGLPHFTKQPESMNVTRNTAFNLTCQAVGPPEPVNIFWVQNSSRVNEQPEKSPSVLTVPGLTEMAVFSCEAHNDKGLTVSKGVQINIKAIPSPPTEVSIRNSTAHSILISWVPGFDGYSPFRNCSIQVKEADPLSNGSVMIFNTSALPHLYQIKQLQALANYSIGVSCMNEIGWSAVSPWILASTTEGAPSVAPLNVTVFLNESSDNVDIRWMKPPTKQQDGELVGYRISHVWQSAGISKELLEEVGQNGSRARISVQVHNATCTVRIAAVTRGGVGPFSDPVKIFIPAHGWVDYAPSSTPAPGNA
Experimental: (§1) FIG. 1: ELISA experiments to investigate the affinity and the specificity of mouse monoclonal antibodies against hAxl. […] After washing, HRP-conjugated anti-mouse IgG was added.

Tyro-3-Fc (h-Tyro-3) = target: T3, Tyro-3-Fc (h-Tyro-3) (human, UniProt Q06418 41-428, limits assumed); assay: ELISA on coated Fc fusion proteins
T3 construct: also called human Tyro-3-Fc; not shown: Fc part
T3 sequence (looked up): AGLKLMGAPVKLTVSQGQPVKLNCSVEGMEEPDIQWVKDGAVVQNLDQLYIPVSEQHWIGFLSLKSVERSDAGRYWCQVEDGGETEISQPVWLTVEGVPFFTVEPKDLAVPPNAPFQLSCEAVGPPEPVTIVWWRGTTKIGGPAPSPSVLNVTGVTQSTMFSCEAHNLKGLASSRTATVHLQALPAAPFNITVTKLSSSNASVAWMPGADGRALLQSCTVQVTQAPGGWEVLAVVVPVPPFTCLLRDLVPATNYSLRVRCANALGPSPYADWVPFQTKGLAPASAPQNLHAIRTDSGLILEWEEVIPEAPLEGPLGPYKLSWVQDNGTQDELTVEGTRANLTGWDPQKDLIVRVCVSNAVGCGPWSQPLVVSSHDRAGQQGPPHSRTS
Experimental: as §1

mouse Axl-Fc = target: T4, mouse Axl-Fc (mouse, UniProt Q00993 20-443, limits assumed); assay: ELISA on coated Fc fusion proteins
T4 construct: also called m-Axl; not shown: Fc part
T4 sequence (looked up): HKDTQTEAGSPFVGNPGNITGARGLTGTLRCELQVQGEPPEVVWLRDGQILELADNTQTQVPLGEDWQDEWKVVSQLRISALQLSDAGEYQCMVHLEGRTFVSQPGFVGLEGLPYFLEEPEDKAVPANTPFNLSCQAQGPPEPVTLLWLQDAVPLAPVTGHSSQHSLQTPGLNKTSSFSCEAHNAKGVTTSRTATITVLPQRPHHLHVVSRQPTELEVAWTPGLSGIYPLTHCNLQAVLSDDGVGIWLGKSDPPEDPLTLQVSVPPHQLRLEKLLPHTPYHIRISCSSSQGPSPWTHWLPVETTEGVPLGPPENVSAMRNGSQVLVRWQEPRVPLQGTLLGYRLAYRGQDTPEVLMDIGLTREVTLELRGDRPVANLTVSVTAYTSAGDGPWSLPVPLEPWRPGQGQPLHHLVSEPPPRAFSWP
Experimental: as §1

- Response (RU) [1]: 2420 RU
- Kd [2]: 1.6 nM
- binding result [3]: binds
- Response (RU) [4]: 2500 RU
- binding result (human Mer-Fc): no binding
- binding result (Tyro-3-Fc (h-Tyro-3)): no binding
- binding result (mouse Axl-Fc): no binding
B1: murine anti-Axl monoclonal antibody 3E3E8 (antibody, V domains shown)
VH: QVQLKESGPGLVAPSQSLSITCSVSGFSLTNYAVHWVRQPPGKGLEWLGVIWAGGSTNYNSALMSRLRISKDNSKSQVFFKMNSLQTDDTAMYYCARYYGSSLYPMDYWGQGTSVTVSS
VL: DIVMTQAAPSVPVTPGESVSISCRSSKSLLHSNGNTYLYWFLQRPGQSPQLLIYRMSNLASGVPDRFSGSGSGTVFTLRISGVEAEDVGVYYCMQHLEYPWTFGGGTELEIK
notes: also called mAb 3E3-E8; mAb 3E3E8
